The source of these data is IntAct's records for PubMed 15169891.

Chain of wasl_bovin WASL (Q95107 whole entry): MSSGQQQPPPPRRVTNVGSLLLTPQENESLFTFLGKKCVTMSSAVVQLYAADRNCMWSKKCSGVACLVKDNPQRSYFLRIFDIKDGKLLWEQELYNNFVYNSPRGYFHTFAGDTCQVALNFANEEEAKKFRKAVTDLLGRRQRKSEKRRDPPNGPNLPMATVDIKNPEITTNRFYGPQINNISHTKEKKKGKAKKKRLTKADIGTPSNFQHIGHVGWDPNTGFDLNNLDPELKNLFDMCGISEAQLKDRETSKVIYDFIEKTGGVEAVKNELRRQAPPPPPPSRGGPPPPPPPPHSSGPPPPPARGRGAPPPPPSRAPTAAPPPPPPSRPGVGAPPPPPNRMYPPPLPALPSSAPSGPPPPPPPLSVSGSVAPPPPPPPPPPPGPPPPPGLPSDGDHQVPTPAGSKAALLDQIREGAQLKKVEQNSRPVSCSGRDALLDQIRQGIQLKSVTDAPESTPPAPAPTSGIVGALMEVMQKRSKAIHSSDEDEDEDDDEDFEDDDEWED
Chain of Src substrate cortactin (Mus musculus), Q60598 Y466D;Y482D (Q60598 whole entry Y466D/Y482D): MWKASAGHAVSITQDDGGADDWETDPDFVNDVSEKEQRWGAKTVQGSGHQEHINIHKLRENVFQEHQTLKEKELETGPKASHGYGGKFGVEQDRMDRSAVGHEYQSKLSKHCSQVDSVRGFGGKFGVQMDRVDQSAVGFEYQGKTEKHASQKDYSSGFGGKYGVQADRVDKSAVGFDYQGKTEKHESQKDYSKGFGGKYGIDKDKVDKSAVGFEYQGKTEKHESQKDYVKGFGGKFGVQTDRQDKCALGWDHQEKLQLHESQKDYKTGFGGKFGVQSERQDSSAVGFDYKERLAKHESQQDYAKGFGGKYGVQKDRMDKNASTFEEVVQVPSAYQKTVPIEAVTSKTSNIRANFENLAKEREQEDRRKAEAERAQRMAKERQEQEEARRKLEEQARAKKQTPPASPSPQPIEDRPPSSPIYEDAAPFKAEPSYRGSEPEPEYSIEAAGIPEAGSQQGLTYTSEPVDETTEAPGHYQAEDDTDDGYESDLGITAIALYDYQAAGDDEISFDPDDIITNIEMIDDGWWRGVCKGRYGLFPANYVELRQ
Chain of Src substrate cortactin (Mus musculus), Q60598 W525K (Q60598 whole entry W525K): as the sequence (Q60598 whole entry Y466D/Y482D) above, with D466Y, D482Y, W525K counted along it
Chain of Src substrate cortactin (Mus musculus), Q60598 S405D;P416D;Y466D;Y482D (Q60598 whole entry S405D/P416D/Y466D/Y482D): as the sequence (Q60598 whole entry Y466D/Y482D) above, with S405D, P416D counted along it
Chain of Src substrate cortactin (Mus musculus), Q60598 S405D;S418D (Q60598 whole entry S405D/S418D): as the sequence (Q60598 whole entry Y466D/Y482D) above, with S405D, S418D, D466Y, D482Y counted along it

This assay addresses wasl_bovin WASL (UniProt Q95107).
For the substance “Src substrate cortactin (Mus musculus), Q60598 S405D;P416D;Y466D;Y482D”, the “effect of a mutation on the interaction” value was “decreasing interaction”.

As for “Src substrate cortactin (Mus musculus), Q60598 S405D;S418D”, the “effect of a mutation on the interaction” value was “increasing interaction”.

For “Src substrate cortactin (Mus musculus), Q60598 W525K”, the “effect of a mutation on the interaction” value was “disrupting interaction”.

With “Src substrate cortactin (Mus musculus), Q60598 Y466D;Y482D”, the “effect of a mutation on the interaction” value is on record as “decreasing interaction”.
